Measurements as given in patent US20230212549A1, “COMPOUNDS COMPRISING A […] LIGAND AND USE THEREOF” (priority 2021, published 2023).
Bridge positions count the residues as written; N and C are the ends.

Key:
[1] = target: Ca2+ channel (L, dihydropyridine site); assay: radioligand displacement (antagonist radioligand), 10 µM
[2] = target: H2 (h) (human), P25021; assay: as above; details: remark: other sources report otherwise
[3] = target: M3 (h) (human), P20309; assay: as above; details: remark: other sources report otherwise
M3 (h) (human), P20309, sequence (P20309 whole entry): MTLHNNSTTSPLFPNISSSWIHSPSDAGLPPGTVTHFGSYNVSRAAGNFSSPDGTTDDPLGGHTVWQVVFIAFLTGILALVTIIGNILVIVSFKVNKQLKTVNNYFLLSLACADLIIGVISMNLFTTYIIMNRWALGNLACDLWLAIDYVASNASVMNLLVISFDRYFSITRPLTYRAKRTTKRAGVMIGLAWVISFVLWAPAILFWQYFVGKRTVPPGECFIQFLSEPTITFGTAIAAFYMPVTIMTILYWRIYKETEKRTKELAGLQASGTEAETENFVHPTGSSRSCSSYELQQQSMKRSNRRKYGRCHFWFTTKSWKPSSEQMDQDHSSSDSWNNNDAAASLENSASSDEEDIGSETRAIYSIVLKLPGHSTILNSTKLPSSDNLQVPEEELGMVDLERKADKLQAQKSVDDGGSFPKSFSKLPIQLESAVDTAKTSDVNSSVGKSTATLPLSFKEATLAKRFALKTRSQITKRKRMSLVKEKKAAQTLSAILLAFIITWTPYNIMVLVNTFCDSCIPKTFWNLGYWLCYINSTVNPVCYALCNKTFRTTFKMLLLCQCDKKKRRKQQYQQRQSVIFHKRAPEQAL

[4] = target: H1 (h) (human), P35367; assay: as above; details: remark: other sources report otherwise
H1 (h) (human), P35367, sequence (P35367 whole entry): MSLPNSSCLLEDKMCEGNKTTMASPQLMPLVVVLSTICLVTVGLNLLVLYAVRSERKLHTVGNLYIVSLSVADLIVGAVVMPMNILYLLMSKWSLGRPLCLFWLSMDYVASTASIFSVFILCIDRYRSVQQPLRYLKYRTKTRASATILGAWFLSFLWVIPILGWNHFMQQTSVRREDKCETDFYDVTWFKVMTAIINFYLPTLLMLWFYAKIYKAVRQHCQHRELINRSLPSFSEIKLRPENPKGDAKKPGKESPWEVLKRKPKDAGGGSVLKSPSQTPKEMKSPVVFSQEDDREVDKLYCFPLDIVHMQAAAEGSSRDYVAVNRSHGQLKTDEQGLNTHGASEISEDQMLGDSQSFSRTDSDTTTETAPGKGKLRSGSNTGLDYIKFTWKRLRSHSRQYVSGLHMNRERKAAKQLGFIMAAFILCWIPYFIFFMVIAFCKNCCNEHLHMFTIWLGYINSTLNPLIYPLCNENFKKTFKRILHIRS

[5] = target: T1, M2 (h) (human), P08172; assay: as above; details: remark: other sources report otherwise
T1 chain: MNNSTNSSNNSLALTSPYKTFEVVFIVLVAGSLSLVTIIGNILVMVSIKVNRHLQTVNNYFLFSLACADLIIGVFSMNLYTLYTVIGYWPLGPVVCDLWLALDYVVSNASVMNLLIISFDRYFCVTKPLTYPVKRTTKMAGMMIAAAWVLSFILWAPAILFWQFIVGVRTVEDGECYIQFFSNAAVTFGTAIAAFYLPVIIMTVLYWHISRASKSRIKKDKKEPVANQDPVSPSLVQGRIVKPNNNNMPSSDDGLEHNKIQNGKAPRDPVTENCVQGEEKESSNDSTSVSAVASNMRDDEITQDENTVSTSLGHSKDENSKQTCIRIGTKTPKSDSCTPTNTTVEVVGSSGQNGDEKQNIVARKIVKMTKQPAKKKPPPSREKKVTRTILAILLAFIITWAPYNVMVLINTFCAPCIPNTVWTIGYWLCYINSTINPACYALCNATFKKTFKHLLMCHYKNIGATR

[6] = target: T2, MAO-A (Rattus norvegicus (Rat)), P21396; assay: as above
T2 chain: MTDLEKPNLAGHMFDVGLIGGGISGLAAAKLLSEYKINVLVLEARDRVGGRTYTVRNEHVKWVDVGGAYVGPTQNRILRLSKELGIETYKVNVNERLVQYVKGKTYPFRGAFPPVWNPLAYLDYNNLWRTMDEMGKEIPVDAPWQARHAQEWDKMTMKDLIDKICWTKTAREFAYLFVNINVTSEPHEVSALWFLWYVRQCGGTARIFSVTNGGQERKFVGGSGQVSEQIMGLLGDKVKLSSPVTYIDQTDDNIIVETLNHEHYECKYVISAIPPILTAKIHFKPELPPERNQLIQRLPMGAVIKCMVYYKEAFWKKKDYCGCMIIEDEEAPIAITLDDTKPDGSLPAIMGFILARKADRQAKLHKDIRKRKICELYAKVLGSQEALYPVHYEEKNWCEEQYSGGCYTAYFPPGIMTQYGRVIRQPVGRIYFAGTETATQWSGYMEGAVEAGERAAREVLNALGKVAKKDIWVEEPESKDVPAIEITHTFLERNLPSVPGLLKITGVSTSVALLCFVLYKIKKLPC

[7] = target: Na+ channel (site 2); assay: as above
[8] = target: NMDA; assay: as above
[9] = target: Matrix metalloprotease 9 (mutant Q279R), P14780; assay: cell-based or functional assay
Matrix metalloprotease 9 (mutant Q279R), P14780, sequence (P14780 107-707 Q279R): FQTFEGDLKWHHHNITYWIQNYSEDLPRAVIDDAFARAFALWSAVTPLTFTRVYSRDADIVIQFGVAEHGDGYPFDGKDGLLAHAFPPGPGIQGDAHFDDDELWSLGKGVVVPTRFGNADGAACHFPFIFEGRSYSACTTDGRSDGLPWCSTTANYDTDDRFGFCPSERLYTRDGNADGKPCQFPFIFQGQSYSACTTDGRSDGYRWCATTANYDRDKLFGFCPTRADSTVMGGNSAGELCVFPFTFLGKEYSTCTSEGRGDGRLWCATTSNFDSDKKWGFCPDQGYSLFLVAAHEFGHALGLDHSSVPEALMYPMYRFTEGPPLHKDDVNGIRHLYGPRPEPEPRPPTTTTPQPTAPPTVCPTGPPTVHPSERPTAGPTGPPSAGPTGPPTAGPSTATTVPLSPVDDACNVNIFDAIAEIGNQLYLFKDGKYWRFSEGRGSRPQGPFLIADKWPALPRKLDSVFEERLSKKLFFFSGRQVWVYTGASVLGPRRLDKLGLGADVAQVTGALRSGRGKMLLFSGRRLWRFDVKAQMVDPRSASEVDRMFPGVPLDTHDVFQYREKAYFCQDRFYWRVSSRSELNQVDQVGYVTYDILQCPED

[10] = target: Cathepsin S, P25774; assay: cell-based or functional assay
Cathepsin S, P25774, sequence (P25774 115-331 limits assumed): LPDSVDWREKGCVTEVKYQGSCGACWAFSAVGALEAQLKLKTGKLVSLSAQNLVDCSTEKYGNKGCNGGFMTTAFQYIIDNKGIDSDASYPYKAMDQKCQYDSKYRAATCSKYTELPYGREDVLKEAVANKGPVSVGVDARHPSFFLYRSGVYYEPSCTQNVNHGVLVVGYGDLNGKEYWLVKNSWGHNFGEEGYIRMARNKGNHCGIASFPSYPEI

[11] = target: T3, Potassium Channel hERG (human) (human), Q12809; assay: radioligand displacement ([3H] Dofetilide), 10 µM; details: remark: other sources report otherwise
T3 chain: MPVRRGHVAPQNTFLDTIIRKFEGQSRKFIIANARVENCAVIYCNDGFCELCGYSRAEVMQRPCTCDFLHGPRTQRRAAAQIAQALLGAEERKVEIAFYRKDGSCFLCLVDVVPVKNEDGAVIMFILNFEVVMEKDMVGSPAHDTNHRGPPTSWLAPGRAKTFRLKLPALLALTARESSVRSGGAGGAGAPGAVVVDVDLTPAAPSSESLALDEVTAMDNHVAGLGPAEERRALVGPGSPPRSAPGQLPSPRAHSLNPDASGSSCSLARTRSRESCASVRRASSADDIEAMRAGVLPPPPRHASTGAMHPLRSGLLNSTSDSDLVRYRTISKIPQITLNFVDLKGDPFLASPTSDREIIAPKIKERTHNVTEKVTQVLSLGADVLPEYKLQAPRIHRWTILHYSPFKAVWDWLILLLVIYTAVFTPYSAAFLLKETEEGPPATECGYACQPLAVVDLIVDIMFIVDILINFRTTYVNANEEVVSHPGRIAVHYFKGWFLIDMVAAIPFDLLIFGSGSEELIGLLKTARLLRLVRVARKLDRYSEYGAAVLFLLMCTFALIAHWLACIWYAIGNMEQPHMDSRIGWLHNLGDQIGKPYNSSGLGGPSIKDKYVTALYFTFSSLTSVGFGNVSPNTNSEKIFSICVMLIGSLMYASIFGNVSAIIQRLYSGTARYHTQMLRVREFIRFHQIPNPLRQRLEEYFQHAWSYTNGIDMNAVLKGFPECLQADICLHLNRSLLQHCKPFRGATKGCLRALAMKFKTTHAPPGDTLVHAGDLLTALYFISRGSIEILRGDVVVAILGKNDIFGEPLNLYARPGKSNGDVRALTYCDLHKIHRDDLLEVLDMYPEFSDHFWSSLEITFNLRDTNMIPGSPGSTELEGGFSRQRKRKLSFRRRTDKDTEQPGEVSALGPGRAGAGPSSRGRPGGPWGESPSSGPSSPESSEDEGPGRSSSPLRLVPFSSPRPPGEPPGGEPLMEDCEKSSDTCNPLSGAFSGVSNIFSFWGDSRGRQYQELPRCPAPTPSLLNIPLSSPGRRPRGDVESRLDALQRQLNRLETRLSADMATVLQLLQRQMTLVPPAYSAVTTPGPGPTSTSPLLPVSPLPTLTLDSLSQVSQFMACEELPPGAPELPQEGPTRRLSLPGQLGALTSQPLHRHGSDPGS

H2 (h) (human), P25021, sequence (P25021 whole entry): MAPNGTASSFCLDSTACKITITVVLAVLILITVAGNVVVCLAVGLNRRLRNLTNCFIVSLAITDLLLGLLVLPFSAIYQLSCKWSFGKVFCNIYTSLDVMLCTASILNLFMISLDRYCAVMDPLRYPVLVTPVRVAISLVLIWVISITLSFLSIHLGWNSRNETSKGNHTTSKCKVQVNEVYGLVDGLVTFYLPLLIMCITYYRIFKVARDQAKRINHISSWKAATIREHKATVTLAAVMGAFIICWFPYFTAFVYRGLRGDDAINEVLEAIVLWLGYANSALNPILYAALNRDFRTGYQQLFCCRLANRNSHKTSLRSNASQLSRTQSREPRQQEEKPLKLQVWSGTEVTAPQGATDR

Row | Binder | % Inhibition of Specific Binding [1] [%] | % Inhibition of Specific Binding [2] [%] | % Inhibition of Specific Binding [3] [%] | % Inhibition of Specific Binding [4] [%] | % Inhibition of Specific Binding [5] [%] | % Inhibition of Specific Binding [6] [%] | % Inhibition of Specific Binding [7] [%] | % Inhibition of Specific Binding [8] [%] | Percentage inhibition (%) at 1 µM [9] [%] | Percentage inhibition (%) at 10 µM [9] [%] | Percentage inhibition (%) at 1 µM [10] [%] | Percentage inhibition (%) at 10 µM [10] [%] | % Inhibition of Specific Binding [11] [%]
1 | Hex-CPPTQFCD-NH2 (bridge 1-7; not fully specified (bridges); printed as Hex-[Cys(tMeBn(DOTA-PP))-Pro-Pro-Thr-Gln-Phe-Cys]-Asp-NH2) [Hex-[Cys(tMeBn(DOTA-PP))-Pro-Pro-Thr-Gln-Phe-Cys]-Asp-NH2] | 42 | -5 | 10 | 11 | -4 | -5 | -7 | 9 | 3 | 2 | 3 | 18 | 2
2 | Hex-CPPTQFC-OH (bridge 1-7; not fully specified (bridges); printed as Hex-[Cys(tMeBn(DOTA-AET))-Pro-Pro-Thr-Gln-Phe-Cys]-OH) [Hex-[Cys(tMeBn(DOTA-AET))-Pro-Pro-Thr-Gln-Phe-Cys]-OH] | 54 | -16 | 1 | 4 | 7 | -25 | 14 | 1 | 3 | 2 | -10 | -23 | 6
